# Results: patent US20220042026A1 (UNIVERSITY COURT OF THE UNIVERSITY OF GLASGOW, published 2022)
# B1: Blue Light-INduced K+ channel 1 (BLINK1) (other)
# chain: MGCTVSAELATTLERIEKNFVITDPRLPDNPIIFASDSFLQLTEYSREEILGRNCRFLQGPETDRATVRKIRDAIDNQTEVTVQLINYTKSGKKFWNLFHLQPMRDQKGDVQYFIGVQLDGTEHVRDAAEREGVMLIKKTAEVFSKFLTRTEPFMIHLFILAMFVMIYKFFPGGFENNFSVANPDKKASWIDCIYFGVTTHSTVGFGDILPKTTGAKLCTIAHIVTVFFIVLTL
# notes: Expressed transiently under the CaMV 35S promoter in N. benthamiana leaves; Unboiled total protein extract was run on SDS-PAGE; The tetramer was detected, with an expected Mw of 106.5 kDa; also called synthetic, blue light-gated K+ channel
# Target: the molecule itself
# Test: immunoblot of unboiled N. benthamiana leaf extract, SDS-PAGE, anti-Kcv detection
protein,measurement,value
B1,binding result,binds
